# Test results from article PMC7412702.
# B1: HA-tagged wild-type human ZP1 [human] / MYC-tagged human wild-type ZP3 [human] (parent)
# chain 1: RWLQPDPGLPGLRHSYDCGIKGMQLLVFPRPGQTLRFKVVDEFGNRFDVNNCSICYHWVTSRPQEPAVFSADYRGCHVLEKDGRFHLRVFMEAVLPNGRVDVAQDATLICPKPDPSRTLDSQLAPPAMFSVSTPQTLSFLPTSGHTSQGSGHAFPSPLDPGHSSVHPTPALPSPGPGPTLATLAQPHWGTLEHWDVNKRDYIGTHLSQEQCQVASGHLPCIVRRTSKEACQQAGCCYDNTREVPCYYGNTATVQCFRDGYFVLVVSQEMALTHRITLANIHLAYAPTSCSPTQHTEAFVVFYFPLTHCGTTMQVAGDQLIYENWLVSGIHIQKGPQGSITRDSTFQLHVRCVFNASDFLPIQASIFPPPSPAPMTQPGPLRLELRIAKDETFSSYYGEDDYPIVRLLREPVHVEVRLLQRTDPNLVLLLHQCWGAPSANPFQQPQWPILSDGCPFKGDSYRTQMVALDGATPFQSHYQRFTVATFALLDSGSQRALRGLVYLFCSTSACHTSGLETCSTACSTGTTRQ
# chain 2: QPLWLLQGGASHPETSVQPVLVECQEATLMVMVSKDLFGTGKLIRAADLTLGPEACEPLVSMDTEDVVRFEVGLHECGNSMQVTDDALVYSTFLLHDPRPVGNLSIVRTNRAEIPIECRYPRQGNVSSQAILPTWLPFRTTVFSEEKLTFSLRLMEENWNAEKRSPTFHLGDAAHLQAEIHTGSHVPLRLFVDHCVATPTPDQNASPYHTIVDFHGCLVDGLTDASSAFKVPRPGPDTLQFTVDVFHFANDSRNMIYITCHLKVTLAEQDPDELNKACSFSKPSNSWFPVEGSADICQCCNKGDCGTPSHSRRQPHVMSQWSRSASRN
# B2: MYC-tagged human wild-type ZP3 [human] / HA-tagged wild-type human ZP1 [human] (parent)
# chain 1: B1 chain 2
# chain 2: B1 chain 1
# Variants of: B1
# Assay: co-IP (IP: anti-HA, blot anti-MYC), densitometry
# Conditions: with MYC-tagged human wild-type ZP3 [human]; HeLa cells; mutant lane co-transfected with HA-ZP1WT + HA-ZP1R109H + MYC-ZP3 (imitating heterozygous state); parent lane HA-ZP1WT + MYC-ZP3; parent: 1; read off a plot; scale: relative protein level
row,response,Variant
1,0.22,chain 1 RWLQPDPGLPGLRHSYDCGIKGMQLLVFPRPGQTLRFKVVDEFGNRFDVNNCSICYHWVTSRPQEPAVFSADYRGCHVLEKDGHFHLRVFMEAVLPNGRVDVAQDATLICPKPDPSRTLDSQLAPPAMFSVSTPQTLSFLPTSGHTSQGSGHAFPSPLDPGHSSVHPTPALPSPGPGPTLATLAQPHWGTLEHWDVNKRDYIGTHLSQEQCQVASGHLPCIVRRTSKEACQQAGCCYDNTREVPCYYGNTATVQCFRDGYFVLVVSQEMALTHRITLANIHLAYAPTSCSPTQHTEAFVVFYFPLTHCGTTMQVAGDQLIYENWLVSGIHIQKGPQGSITRDSTFQLHVRCVFNASDFLPIQASIFPPPSPAPMTQPGPLRLELRIAKDETFSSYYGEDDYPIVRLLREPVHVEVRLLQRTDPNLVLLLHQCWGAPSANPFQQPQWPILSDGCPFKGDSYRTQMVALDGATPFQSHYQRFTVATFALLDSGSQRALRGLVYLFCSTSACHTSGLETCSTACSTGTTRQ [chain 1 R84H]

# Variants of: B2
# Assay: co-IP (IP: MYC as labelled in the image, blot anti-HA), densitometry
# Conditions: with HA-tagged wild-type human ZP1 [human]; HeLa cells; mutant lane co-transfected with MYC-ZP3WT + MYC-ZP3A134T + HA-ZP1 (imitating heterozygous state); parent lane MYC-ZP3WT + HA-ZP1; parent: 1; read off a plot; scale: relative protein level
row,response,Variant
1,0.87,chain 1 QPLWLLQGGASHPETSVQPVLVECQEATLMVMVSKDLFGTGKLIRAADLTLGPEACEPLVSMDTEDVVRFEVGLHECGNSMQVTDDALVYSTFLLHDPRPVGNLSIVRTNRTEIPIECRYPRQGNVSSQAILPTWLPFRTTVFSEEKLTFSLRLMEENWNAEKRSPTFHLGDAAHLQAEIHTGSHVPLRLFVDHCVATPTPDQNASPYHTIVDFHGCLVDGLTDASSAFKVPRPGPDTLQFTVDVFHFANDSRNMIYITCHLKVTLAEQDPDELNKACSFSKPSNSWFPVEGSADICQCCNKGDCGTPSHSRRQPHVMSQWSRSASRN [chain 1 A112T]
